Reference: patent US20160207974A1 (published 2016)
One block for each binder: values may come before it.

Biological target: T1, monkey serum albumin (monkey)
T1 construct: also called Monkey SA
Experiment: SPR (BioRad ProteOn XPR36), albumin amine-coupled to GLC chip, analyte from 5 nM in 3-fold dilutions, 25 C
Description: All studies were conducted on a BioRad ProteOn XPR36 system using a GLC sensor chip at 25 degrees C. For amine coupling the GLC chip was activated for 5 minutes using a 1:1 mixture of sulfo-NHS/EDC diluted 30-fold from the initial stock in water as shown below. Each albumin sample was diluted to 25 ug/ml in 10 mM Na Acetate pH 5.0 and injected for 5 minutes over separate sensor surfaces. Each surface was then blocked with 1 M ethanolamine pH 8.5. Each albumin was coupled at a density of 2000-5000 in resonance units.
The binding of an engineered polypeptide was tested using 5 nM as the highest concentration in a three-fold dilution series. The running buffer contained 10 mM HEPES pH 7.4, 150 mM NaCl, 3 mM EDTA and 0.005% tween-20. All samples were tested using a 3-fold dilution series. Each concentration series was tested in duplicate. The dissociation phase for the highest concentration […] was monitored for 3 hours.

T1 sequence (Q28522 17-600): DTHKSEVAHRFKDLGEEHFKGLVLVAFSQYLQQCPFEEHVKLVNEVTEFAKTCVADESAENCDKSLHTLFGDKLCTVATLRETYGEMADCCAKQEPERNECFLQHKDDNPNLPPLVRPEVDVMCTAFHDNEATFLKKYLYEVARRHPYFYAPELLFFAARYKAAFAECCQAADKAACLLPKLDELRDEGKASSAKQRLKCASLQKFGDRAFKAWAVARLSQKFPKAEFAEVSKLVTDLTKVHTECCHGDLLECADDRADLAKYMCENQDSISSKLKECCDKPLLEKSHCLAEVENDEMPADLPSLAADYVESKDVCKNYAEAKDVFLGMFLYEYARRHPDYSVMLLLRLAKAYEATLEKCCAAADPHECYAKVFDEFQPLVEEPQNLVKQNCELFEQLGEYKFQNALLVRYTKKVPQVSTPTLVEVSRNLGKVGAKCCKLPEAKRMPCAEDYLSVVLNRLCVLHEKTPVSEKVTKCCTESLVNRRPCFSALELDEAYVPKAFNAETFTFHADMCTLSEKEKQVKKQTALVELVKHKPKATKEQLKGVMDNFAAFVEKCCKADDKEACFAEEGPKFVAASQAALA

- Kd: 0.4 nM
B1: PEP07986-negative linker-A500 (Compound 12) (other)
chain: MGSLAEAKEAANAELDSYGVSDFYKRLIDKAKTVEGVEALKDAILAALPTGGEGGEGGEGGEGGEGGEASVPIQKVQDDTKTLIKTIVTRINDISHTQSVSSKQKVTGLEFIPGLHPILTLSKMDQTLAVYQQILTSMPSRNVIQISNDLENLRDLLHVLAFSKSCHLPQASGLETLESLGGVLEASGYSTEVVALSRLQGSLQDMLQQLDLSPGC
notes: also called Cmpd 12; PEP07986-Negative-A500

- Kd: 0.405 nM
B2: PEP07986-neutral linker-A500 (Compound 2) (other)
chain: MGSLAEAKEAANAELDSYGVSDFYKRLIDKAKTVEGVEALKDAILAALPTGGGGSGGGSGGGSGGGSASVPIQKVQDDTKTLIKTIVTRINDISHTQSVSSKQKVTGLEFIPGLHPILTLSKMDQTLAVYQQILTSMPSRNVIQISNDLENLRDLLHVLAFSKSCHLPQASGLETLESLGGVLEASGYSTEVVALSRLQGSLQDMLQQLDLSPGC
notes: also called Cmpd 2; PEP07986-Neutral-A500
